A protein production outcome set (Wang et al. 2014)

Assay: label from the status in PepcDB records
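Further: failed if final PepcDB status was selected cloned or expressed and not failed if soluble or beyond.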

With “MSNNEPSSLKQSIKLAWPISLQSILVTMLGMSDIMMVGHLGDTAVASVGLGNRIQFVFLIILAGLASGVGTLSAQHFGAGQIGVIRQIIVKTLVIAAGILLPILLITFLFAGNIMGIATTDPSVINTGTSYLWLTMPSLIFVVVVMIFENALRGLGQVIFPMFISIIAIITNIILNYWLIKGGLGIEPMGVIGAALATLLARALHALLILTYLAKVKHSIFPTTFFCADFYNKQAWTKLLTLVWPMMLSFGVWSLGTFVYQLIYGRIGTQELAVMSLLAPIEGLLVSFFFGFASACAILVGQRLGKNEFSNAWSLAKNYAISAPIITFLLALILLQYQYLVFMPFSNLSSETITLSQEILVLICFGTCLKVFNMTIAMGILRAGGDNKYCMFIDISGMWIISIPLTFMAAFYFMLPLYWVALIAYSEEIIKAVMFIFRMKTRHWLKNLTAESMA” as the sequence, how does the protein production read?
Its protein production is “failed”.

For “MKIRSADASDLDSLLRLNYQIGVMHFENAPESFVKPSSEEKEFLLKALNDQSRLFLVAEISGDVVGFVTATVTQNEAIPFLVKTPICRVGTIVVDENARVSGIGTQLMARCNDWAKSQGAEQIRLEVMAFNKSAQSFYVKLGFEEQSKTMWKTVN”, which protein production is on record?
The protein production was “failed”.

For “MPNFKSKKIKEINLPYSKDDVEFLWLAKNDNVSLIYTKVQEESFFLQIKKAQNGFVIKGDKHTKPSKIGYLQKALKIFKEGFCEDIINEAFGLKNNALIEKTPFIVDNFDELLSRLQGKIYIEIGFGSGRHLLYQAKENPNVLILGVEIYNPALTQVAKLAKAQNVNNILLIQSDARLLLSVLKSKSVEKIFLHFPVPWDKKPHRRVIGKDFCKECARVLVQNGRFELRTDSFEYFNFTLEQFLTFPAPKFSLRKNENLEISSKYEDRWKKQEKNIYDLWVWNFNQECKNYELNEFNLSSVEFSKEDLKKIEQNFKNITIKKDDFFLHFESIYKQDENLLLKVAFGAFNKPEHCYLHLDKTIDFAFKEPFKIQENIKAINELKEILKVQFKI”, which protein production is on record?
The protein production was “failed”.

For “MRFDGAAGLAQRMPMLGRVVQAAPLALLLGCCLILTLPASGRTLFYILCSLSLLFLPLAMFQRLEAKPKALNLLLSFALLIFIGFRAAWLWYFPAPTDAGLFPVAFAYQLSNKIWLSALPLLLFPLWSPFRERLSPAGATLALVSASALLSMITLKAWYDAHGVRVGLGSLYATGAAYLLSAIHFFALLLFHPFRLKKWQWLGLCLLIALQFMSIVATGTRAALLVYLFVLGCALLWRFGLHQSWRTYAIAALLSVATLWLSWAAVGSRVKQAQADLIAYSQGNADTSLGIRFSLWDAGVHAVREQPWGQSIQARDVLFHQLVKDGALNKAALIMRDVHLHNEWLEILSLQGLPGALSWLIFLLGFGVYGWKRGGFFRRFALFYIGFWLVFGLSDVLLLSPQIAMFGAMFAALGLYLAPIFDARDERRL”, which protein production is on record?
The protein production was “failed”.

With “MAPGAAQELQAKLAEIGAPIQGNREELVERLQSYTRQTGIVLNRPVLRGEDGDKAAPPPMSAQ” as the sequence, how does the protein production read?
Its protein production is “failed”.

For “MGKEITENIIDVEFKCNHFKMNGYIGNNNIYRSNKNLQHIYINKRFVKSKIIIDAITESYKSIIPIGKHAVCFLNIEVDPSCIDVNIHPNKLEIKFEKEQEVYIELRDFLKVKLIHSNLIGLEHHHHHH”, which protein production is on record?
Its protein production is “failed”.

Which protein production does the source give for “MPSEVTEEFIIIIAVVLIGLVLFGFVTSYFIPHEIFSLAQQQASSISSSTTVSVGPLIFNSGSASTVIEAYNPAISGNITLIVFPEPSYLQQDVGLVTPQSPPQFSVYLSNEKLAKSFTISIPIYDVNGRIIYDSQITAYTVPFNTPVTITVNGVGGSNYILIVWVLYNSNGYWFRIGYTFTGVPST” here?
The protein production was “failed”.

Which protein production does the source give for “MGRVIVLGEVLLVGLRFVFVLLIYIFVWHVLRLMYLELGLAPAQSSRKRPVLVVLDAKNGGAKRGESYPLGENISIGRDNHNDIIINDSHVSARHAVITRQGREWKILDLDSTNGTYVNGLRLTGPHSLRPGDKISIGGVTFKVGWEDASRSPFPYRTGAAR” here?
The protein production was “failed”.

Which protein production does the source give for “MAKNYYDITLALAGICQSARLVQQLAHQGHCDADALHVSLNSIIDMNPSSTLAVFGGSEANLRVGLETLLGVLNASSRQGLNAELTRYTLSLMVLERKLSSAKGALDTLGNRINGLQRQLEHFDLQSETLMSAMAAIYVDVISPLGPRIQVTGSPAVLQSPQVQAKVRATLLAGIRAAVLWHQVGGGRLQLMFSRNRLTTQAKQILAHLTPEL” here?
Its protein production is “not failed”.

For “MLDANKLQQAVDQAYTQFHSLNGGQNADYIPFLANVPGQLAAVAIVTCDGNVYSAGDSDYRFALESISKVCTLALALEDVGPQAVQDKIGADPTGLPFNSVIALELHGGKPLSPLVNAGAIATTSLINAENVEQRWQRILHIQQQLAGEQVALSDEVNQSEQTTNFHNRAIAWLLYSAGYLYCDAMEACDVYTRQCSTLLNTIELATLGATLAAGGVNPLTHKRVLQADNVPYILAEMMMEGLYGRSGDWAYRVGLPGKSGVGGGILAVVPGVMGIAAFSPPLDEDGNSVRGQKMVASVAKQLGYNVFKG”, which protein production is on record?
The protein production was “not failed”.

For “MTTPVDAPKWPRQIPYIIASEACERFSFYGMRNILTPFLMTALLLSIPEELRGAVAKDVFHSFVIGVYFFPLLGGWIADRFFGKYNTILWLSLIYCVGHAFLAIFEHSVQGFYTGLFLIALGSGGIKPLVSSFMGDQFDQSNKSLAQKAFDMFYFTINFGSFFASLSMPLLLKNFGAAVAFGIPGVLMFVATVFFWLGRKRYIHMPPEPKDPHGFLPVIRSALLTKVEGKGNIGLVLALIGGVSAAYALVNIPTLGIVAGLCCAMVLVMGFVGAGASLQLERARKSHPDAAVDGVRSVLRILVLFALVTPFWSLFDQKASTWILQANDMVKPQWFEPAMMQALNPLLVMLLIPFNNFVLYPAIERMGVKLTALRKMGAGIAITGLSWIVVGTIQLMMDGGSALSIFWQILPYALLTFGEVLVSATGLEFAYSQAPKAMKGTIMSFWTLSVTVGNLWVLLANVSVKSPTVTEQIVQTGMSVTAFQMFFFAGFAILAAIVFALYARSYQMQDHYRQAT”, which protein production is on record?
Its protein production is “failed”.

With “MSGQPTAVDCLESSGSTVEDVQETPASREKSYGLPVRKGENSLESPAEQAAKDVEIEELTHSEAIAATGSTRKQCPYGGKAPDEPGKLADESEDRKGENTKAIASSPVLVAVDSDSSVELIESPVKFSSANESEKDPPKPDAVNEAAAKE” as the sequence, how does the protein production read?
The protein production was “failed”.

Which protein production does the source give for “MDLLQFLIDKNNVFIVAVAVVSGIMLMLPALRKGRAGAAVGTSEAIQMVNQRQAVWVDVRPTEQFQAGHIAQARSLPAADLEKKAGALPKNKPLIVVCEQGRDAARIAARLRSQGFAEVSVLEGGMRAWFAAGLPVTQKG” here?
Its protein production is “failed”.

Which protein production does the source give for “MDDWEDEKIAPLPAKVELKSNWDDEDVDENEIKDSWEDDDDEPAQPPVINPAPEKAPKKAAPKTVEKKGKAVEVPKEAPKEKPLDPIAEKLRQQRLVEEADYRATAELFGVKDDDKNLDMFIPKSESDFLEYAEMISHRIKPYEKSYHYIALLKTIMRLSLTNMKAADVKDVASSITTIANEKLKAEKEAAAGKKKGGKKKQLIVDKANDDLVAGPYDAMDDFDFM” here?
The protein production was “failed”.

For “MKQFLITGGTGMVGSQLVNKLKNRDVHITILTRSDKQSDDPKISYVNWSKDGWMSQVPDIDVVVNLAGATLNKRWTPSYKQLIMTSRIQSTQSLVDLFSQREHKPEVLFNASAMGYYPPSLYHTYTEKYQTHPFDFLSDVVYQWERFAKRFESFGTRVVLGRFSMILSNDGGALQTMKLPYKFFVGGKLGSGFQWYSWIHINDLVRAILFTIDNPNAKGPFNMAAPIAERQNLFGYTLARVMHRPHETWVPSFLMRLALGEMSTVVLDTQKVLPNKLDALGFTFNYSNLKIAFEDLIDALEHHHHHH”, which protein production is on record?
The protein production was “failed”.

Which protein production does the source give for “MPSFLEISPDKLNRLIGTPGAPRIIDVRTDEDFALDPRLVPGSIRRDHAEVASWADSIDADAVVVVCHRGAKLSHGVAAYLRHAGIEAESLAGGFEAWAAAGPAVPEAKLEHHHHHH” here?
Its protein production is “failed”.

With “LDVGCNQGGFLRKLYDTTPFKEGVGIDLARLSLEKAETLKGERPLTYYLTDKPQETNRTFDTAVSTSVLYLIEDIPQHAQDLKEVLKPGGVYYASFADLTNNPSRQFMDDTINQYGATPSQNHSLKHIVDSFVDAGFEVAVMKEPVPDVIDLTHYSDFYLSPNDYLQTLYEESFLIKASVKEGIGK” as the sequence, how does the protein production read?
Its protein production is “failed”.

For “MLKLFAKYTSIGVLNTLIHWVVFGVCIYVAHTNQALANFAGFVVAVSFSFFANAKFTFKASTTTMRYMLYVGFMGTLSATVGWAADRCALPPMITLVTFSAISLVCGFVYSKFIVFRDAK”, which protein production is on record?
Its protein production is “failed”.
